Test results: US9073982B2, “Targets for regulation of angiogenesis” (The University of North Carolina at Chapel Hill, priority 2008, dated 2015)
Entries after “also recorded” stand apart in the source; their conditions may differ.

Assays:
[1] = test system: C57BL/6 mice; experiment: Mouse MATRIGEL plug angiogenesis assay; assay type: in vivo
Method: The ability of mouse recombinant SFRP2 would stimulate angiogenesis in a mouse MATRIGEL plug angiogenesis assay was evaluated. Female C57BL/6 mice (8 weeks old) were injected s.c. with 0.5 ml of growth factor reduced basement membrane matrix (MATRIGEL) containing either mouse recombinant SFRP2 (800 ng/ml) with 30 U/ml heparin or PBS with 30 U/ml heparin for negative control. Seven days later the mice were sacrificed and the MATRIGEL plugs removed and evaluated for angiogenesis by hemoglobin concentration with the Drabkin's reagent.

[2] = test system: chick chorioallantoic membrane; experiment: Chick chorioallantoic membrane (CAM) assay; assay type: in vivo, chicken; conditions: 100 ng per disk, evaluated day 3 after disk placement
Method: On day 4, the eggs were cracked into sterile Petri dishes and incubated at 99° F. in 3% CO2, 65% humidity. For application of drug onto the CAM, Whatman grade 1 filter paper was cut into circles with a 6 mm diameter paper punch and autoclaved. To decrease inflammatory effects of the disk, the discs were soaked in 1 ml of 3.0 mg/ml cortisone acetate in absolute ETOH and air dried for 60 min in a laminar flow hood. On day 8, 5 disks per egg were placed on the outer third of the CAM, 2-3 mm from a vessel. Control PBS 7 μl was added to the discs for the control CAMs, and SFRP2 100 ng/7 μl PBS was added to the disks for the treated CAMs (n=5 control disks and 5 SFRP2-treated disks). The CAMs were evaluated under a stereomicroscope on day 3 after disk placement. Pictures were taken with a Wild M-4 70 Macrosystem, and angiogenesis was quantified using Metamorph Software with an angiogenesis module.
Fertilized chickens eggs (NC State University Chicken Research Faint) were incubated at 100.4° F. in an egg turner (Model#1588 Genesis Hova-Bator, GQF Mfg. Co., Inc.) for 3 days. […] CAMs were evaluated under a stereomicroscope on day 3 after disk placement. Pictures were taken with a Wild M-4 70 Macrosystem and angiogenesis was quantified using Metamorph Software with an angiogenesis module.

[3] = test system: mouse endothelial cells (MEC); experiment: Scratch wound assay on mouse endothelial cells; assay type: cell-based; conditions: SFRP2 0.7 pM-700 pM, 16 to 32 hours
Method: The migration properties of SFRP2 on mouse endothelial cells (MEC) cells were evaluated using a scratch wound assay. Mouse endothelial cells were plated at 10,000 cells/well into a 96 well plate and allowed to become confluent in DMEM with 10% FBS. The cells were quiesced in DMEM without serum for 18 hours. The wound was formed using a 1 ml pipette tip and a 0.7 pM-700 pM dose curve of mouse recombinant SFRP2 (US Biologicals, Swampscott) was added to the cells. Each concentration was performed in triplicate and the experiment was repeated three times with similar results. Migration was measured from 16 to 32 hours. Migration distance was measured at each time point. Statistical differences between SFRP2 and control were evaluated with an unpaired two-tailed Student's t-test, with p<0.05 being significant.

[4] = test system: NFATc3; experiment: Western blot for nuclear NFATc3 in MEC cells; assay type: cell-based, mouse; conditions: SFRP2 700 pM
Method: To evaluate the role of the non-canonical Wnt/Ca^++ pathway in SFRP2 induced angiogenesis, nuclear dephosphorylated NFATc3 protein levels were compared in control and SFRP2-treated endothelial cells. MEC cells were plated in 12-well plates and allowed to attach overnight. The next day, the media was changed and added to the wells with and without SFRP2 (700 pM). Cells were incubated for 1, 2, 4, 8 and 16 hours, and the nuclear proteins were extracted by using NE-PER™ nuclear and cytoplasmic extraction reagent from PIERCE (Pierce Biotechnology) as described in the manufacturer's manual. The Western blot analysis was performed using standard methods, with primary antibody to the dephosphorylated (active) β-catenin antibody or NFATc3.

[5] = test system: Human coronary artery endothelial cells (HCAEC); experiment: Hypoxia-induced endothelial cell apoptosis assay (caspase 3); assay type: cell-based; conditions: SFRP2 70 pM and 700 pM, 36 h hypoxia
Method: Human coronary artery endothelial cells (HCAEC) were used for apoptosis assays because apoptosis could not be induced in the MEC cells. HCAECs were grown in 10-cm dishes (Becton Dickinson, Franklin Lakes, N.J.) with endothelial cell basal medium-2 (EGM-2) BulletKit media (Clonetics, San Diego, Calif.) until 80% confluent. Medium was then replaced with optimal medium according to different assays. The hypoxic condition was created by incubating HCAECs in EGM-2 media without BulletKit growth factors at 37° C. in a hypoxia chamber with an atmosphere of 5% CO2/95% N2. The oxygen level in the chamber was controlled to 1.0%. Apoptosis was determined by measuring the activity of cleaved caspase 3 by using a caspase-specific fluorogenic substrate according to the protocol for the Caspase 3 Assay Kit (Sigma). HCAECs were lysed after treatment with concentrations of SFRP2 (70 pM and 700 pM) for 36 h under hypoxia. […] The enzyme-catalyzed release of 7-amino-4-methyl coumarin (AMC) was measured by a fluorescence microplate reader.
HCAEC were seeded onto a 96 well plate at 2,000 cells/well in EGM-2 with BulletKit growth supplements. […] Apoptosis was determined by measuring the activity of cleaved caspase 3 by using a caspase-specific fluorogenic substrate according to the protocol for the Apo-ONE® Homogeneous Caspase-3/7 Assay (Promega, Madison, Wis.). […]

B1: SFRP2: mouse recombinant SFRP2 (US Biologicals), secreted frizzled-related protein 2 (protein)
chain: LFLFGQPDFSYKRSNCKPIPANLQLCHGIEYQNMRLPNLLGHETMKEVLEQAGAWIPLVMKQCHPDTKKFLCSLFAPVCLDDLDETIQPCHSLCVQVKDRCAPVMSAFGFPWPDMLECDRFPQDNDLCIPLASSDHLLPATEEAPKVCEACKTKNEDDNDIMETLCKNDFALKIKVKEITYINRDTKIILETKSKTIYKLNGVSERDLKKSVLWLKDSLQCTCEEMNDINAPYLVMGQKQGGELVITSVKRWQKGQREFKRISRSIRKLQC
- hemoglobin content of plugs, increase compared with the vehicle control ([1]; SFRP2 800 ng/ml with heparin, s.c., seven days): 3.3 fold
- angiogenesis in the mouse MATRIGEL plug assay ([1]; mouse, in vivo): induces angiogenesis
- angiogenesis on the CAM (branch points, segments, tube area, tube length) [2]: induced angiogenesis on the CAM; also recorded: induces angiogenesis on the chorioallantoic membrane
- endothelial cell migration [3]: increases endothelial cell migration
- nuclear NFATc3 level [4]: increased at 30 minutes in the nuclear fraction
- hypoxia induced endothelial cell apoptosis (cleaved caspase 3 activity) [5]: protected against hypoxia induced endothelial cell apoptosis; also recorded: inhibits hypoxia-induced apoptosis
